Among the data in publication PMC7054171 are fold reduction in binding against the lit state variant values, retold here.

The assay has as its target GST tagged Cdc42 Q61L (human) (UniProt P60953). Kind of assay: pull-down.

Sequence of GST tagged Cdc42 Q61L (human) (P60953 whole entry Q61L): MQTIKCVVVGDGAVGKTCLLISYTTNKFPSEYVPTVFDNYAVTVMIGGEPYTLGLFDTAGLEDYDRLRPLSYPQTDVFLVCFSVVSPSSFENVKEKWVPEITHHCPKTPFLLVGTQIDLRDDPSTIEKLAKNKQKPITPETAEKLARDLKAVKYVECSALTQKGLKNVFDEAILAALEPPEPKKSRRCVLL

For “mVenus-Z-lock-WASP dark (zDK2-GS0-CBD-LOV2, dark state variant) (from UniProt P42768 230-288; O49003 404-546) (designed binder)”, the fold reduction in binding against the lit state variant is above 5 fold.
